This data set concerns the target T1, RNase H (UniProt P0A7Y4).
T1 sequence: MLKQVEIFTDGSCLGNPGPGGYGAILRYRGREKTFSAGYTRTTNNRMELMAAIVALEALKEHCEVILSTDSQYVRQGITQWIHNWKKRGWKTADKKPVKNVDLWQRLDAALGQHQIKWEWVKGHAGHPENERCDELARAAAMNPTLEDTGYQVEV
Briefly: flow.

The source of these data is US20130231261.

Regarding “AAGCCAGCTGCTTCCATTGGTGGGTCGTTTTTGCTGTCACCAGCAACATTGCCTCGTCTA [EF1a capture oligo without RNA]”, the binding (fluorescence units) (no RNA, equivalent to bead background of 44 units) was found to be 47.
For the sequence “AAGCCAGCTGCTTCCATTGGTGGGTCGTTTTTGCTGTCACCAGCAACATTGCCTCGTCTA [EF1a capture oligo:EF1a RNA hybrid]”, the binding (fluorescence units) (bead fluorescence 4x over no-RNA control, released to 45 units on adding MgCl2) stood at 196.
